Assay results published in publication PMC3506619, “NADP^+ Binding to the Regulatory Subunit of Methionine Adenosyltransferase II Increases Intersubunit Binding Affinity in the Hetero-Trimer” (PLoS ONE, 2012).

Biological target: methionine adenosyltransferase II regulatory β subunit, wild type (human MAT2B, V1 form) (human) (UniProt Q9NZL9)
Test: AUC; sedimentation equilibrium of purified β (0.2-0.5 mg/ml), 293 K

methionine adenosyltransferase II regulatory β subunit, wild type (human MAT2B, V1 form) (from UniProt Q9NZL9 1-334) (natural protein)
stoichiometry N: 2
